Molecular target: T1, receptor tyrosine kinase-like orphan receptor 1 (ROR1) expressed on EW36 cells (human, UniProt Q01973 30-937)
T1 construct: whole, on cells; Endogenous ROR1 on viable EW36 human B-cell lymphoma cells; also called RORI
Assay: flow cytometry on EW36 cells, culture supernatant, Alexa-488 goat anti-human IgG
Experimental: Dual parameter flow cytometry was done in a FACSCalibur instrument (BD Biosciences; Immunocytometry Systems) using an anti-human 1gG that reacted with cell bound scFV of the invention (as shown in SEQ.ID.No: 3), but not the cells used in these experiments.
Propidium iodide was added to stain dead cells, which could then be excluded from the analysis. Following incubation with the culture supernatants, the cells were washed prior to analysis using a FACSCalibu™ (Becton Dickinson, Mountain View, Calif.). The data analyzed with FlowJo™ software (Tree Star, San Carlos, Calif.). A total of 20,000-gated events were collected for each sample in a list mode file, and data analysis was done using CellQuest™ software (BD Biosciences). The relative log florescence of the cells is depicted on the x-axis. Cells staining with the Alexa-488 conjugated goat antibody are shifted to the right. A histogram of control unstained cells or cells stained with the Alexa-488 conjugated goat antibody in the absence of the scFV are provided for comparison.

T1 sequence (Q01973 30-937): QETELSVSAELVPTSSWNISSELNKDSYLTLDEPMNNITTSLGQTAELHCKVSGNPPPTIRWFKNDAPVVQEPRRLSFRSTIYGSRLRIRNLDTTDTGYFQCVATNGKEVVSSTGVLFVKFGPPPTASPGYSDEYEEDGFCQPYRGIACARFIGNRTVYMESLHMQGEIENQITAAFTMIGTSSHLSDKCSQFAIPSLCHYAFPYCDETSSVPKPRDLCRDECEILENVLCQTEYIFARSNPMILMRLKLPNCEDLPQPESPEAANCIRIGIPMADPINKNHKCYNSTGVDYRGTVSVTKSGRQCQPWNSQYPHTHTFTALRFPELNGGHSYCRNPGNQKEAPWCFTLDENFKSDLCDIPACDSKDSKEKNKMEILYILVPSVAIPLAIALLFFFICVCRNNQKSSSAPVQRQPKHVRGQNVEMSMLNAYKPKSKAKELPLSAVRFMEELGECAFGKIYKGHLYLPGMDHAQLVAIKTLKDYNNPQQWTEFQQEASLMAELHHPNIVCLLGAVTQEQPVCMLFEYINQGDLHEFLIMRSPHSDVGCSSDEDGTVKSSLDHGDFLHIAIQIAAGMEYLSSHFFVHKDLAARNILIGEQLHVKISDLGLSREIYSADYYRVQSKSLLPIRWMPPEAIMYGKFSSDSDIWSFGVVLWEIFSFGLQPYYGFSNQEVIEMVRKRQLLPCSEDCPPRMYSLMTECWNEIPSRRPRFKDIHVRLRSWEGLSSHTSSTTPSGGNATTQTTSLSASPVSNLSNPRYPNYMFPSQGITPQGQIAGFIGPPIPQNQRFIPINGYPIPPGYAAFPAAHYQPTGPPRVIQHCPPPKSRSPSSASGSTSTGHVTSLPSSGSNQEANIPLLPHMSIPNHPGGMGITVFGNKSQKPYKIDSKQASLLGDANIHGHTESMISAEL

B1: pCDNA 3.1 CH2 CH3 stable scFV (anti-ROR1 mAb scFv fused to CH2 CH3) (Fc fusion)
scFv: DIKMTQSPSSMYASLGERVTITCKASPDINSYLSWFQQKPGKSPKTLIYRANRLVDGVPSRFSGGGSGQDYSLTINSLEYEDMGIYYCLQYDEFPYTFGGGTKLEMKGSTSGSGKPGSGEGSTKGEVKLVESGGGLVKPGGSLKLSCAASGFTFSSYAMSWVRQIPEKRLEWVASISRGGTTYYPDSVKGRFTISRDNVRNILYLQMSSLRSEDTAMYYCGRYDYDGYYAMDYWGQGTSVTVSS
notes: Tested as culture supernatants of stably transfected cell clones; All clones carry the same construct, so they are written as one molecule; also called scFV of the invention; not shown: CH2 CH3 domains (detected with anti-human IgG)
**Q.** Does B1 bind?
**A.** binds
